Patent US8343911B2, “Methods of inhibiting and treating bacterial biofilms by metal chelators” (University of Iowa Research Foundation, priority 2002, dated 2013)

B1: lactoferrin (protein, UniProt P02788 20-710, looked up)
Lactotransferrin: GRRRSVQWCAVSQPEATKCFQWQRNMRKVRGPPVSCIKRDSPIQCIQAIAENRADAVTLDGGFIYEAGLAPYKLRPVAAEVYGTERQPRTHYYAVAVVKKGGSFQLNELQGLKSCHTGLRRTAGWNVPIGTLRPFLNWTGPPEPIEAAVARFFSASCVPGADKGQFPNLCRLCAGTGENKCAFSSQEPYFSYSGAFKCLRDGAGDVAFIRESTVFEDLSDEAERDEYELLCPDNTRKPVDKFKDCHLARVPSHAVVARSVNGKEDAIWNLLRQAQEKFGKDKSPKFQLFGSPSGQKDLLFKDSAIGFSRVPPRIDSGLYLGSGYFTAIQNLRKSEEEVAARRARVVWCAVGEQELRKCNQWSGLSEGSVTCSSASTTEDCIALVLKGEADAMSLDGGYVYTAGKCGLVPVLAENYKSQQSSDPDPNCVDRPVEGYLAVAVVRRSDTSLTWNSVKGKKSCHTAVDRTAGWNIPMGLLFNQTGSCKFDEYFSQSCAPGSDPRSNLCALCIGDEQGENKCVPNSNERYYGYTGAFRCLAENAGDVAFVKDVTVLQNTDGNNNEAWAKDLKLADFALLCLDGKRKPVTEARSCHLAMAPNHAVVSRMDKVERLKQVLLHQQAKFGRNGSDCPDKFCLFQSETKNLLFNDNTECLARLHGKTTYEKYLGPQYVAGITNLKKCSTSPLLEACEFLRK
notes: known iron chelating protein (Sigma Chemical Co.), proteinaceous metal chelator
B2: lactoferrin (protein, UniProt P02788 20-710, looked up)
Lactotransferrin: GRRRSVQWCAVSQPEATKCFQWQRNMRKVRGPPVSCIKRDSPIQCIQAIAENRADAVTLDGGFIYEAGLAPYKLRPVAAEVYGTERQPRTHYYAVAVVKKGGSFQLNELQGLKSCHTGLRRTAGWNVPIGTLRPFLNWTGPPEPIEAAVARFFSASCVPGADKGQFPNLCRLCAGTGENKCAFSSQEPYFSYSGAFKCLRDGAGDVAFIRESTVFEDLSDEAERDEYELLCPDNTRKPVDKFKDCHLARVPSHAVVARSVNGKEDAIWNLLRQAQEKFGKDKSPKFQLFGSPSGQKDLLFKDSAIGFSRVPPRIDSGLYLGSGYFTAIQNLRKSEEEVAARRARVVWCAVGEQELRKCNQWSGLSEGSVTCSSASTTEDCIALVLKGEADAMSLDGGYVYTAGKCGLVPVLAENYKSQQSSDPDPNCVDRPVEGYLAVAVVRRSDTSLTWNSVKGKKSCHTAVDRTAGWNIPMGLLFNQTGSCKFDEYFSQSCAPGSDPRSNLCALCIGDEQGENKCVPNSNERYYGYTGAFRCLAENAGDVAFVKDVTVLQNTDGNNNEAWAKDLKLADFALLCLDGKRKPVTEARSCHLAMAPNHAVVSRMDKVERLKQVLLHQQAKFGRNGSDCPDKFCLFQSETKNLLFNDNTECLARLHGKTTYEKYLGPQYVAGITNLKKCSTSPLLEACEFLRK
modifications: iron-saturated
notes: lactoferrin in the iron-saturated state
B3: conalbumin (protein, UniProt P02789 20-705, looked up)
Ovotransferrin: APPKSVIRWCTISSPEEKKCNNLRDLTQQERISLTCVQKATYLDCIKAIANNEADAISLDGGQAFEAGLAPYKLKPIAAEVYEHTEGSTTSYYAVAVVKKGTEFTVNDLQGKTSCHTGLGRSAGWNIPIGTLLHRGAIEWEGIESGSVEQAVAKFFSASCVPGATIEQKLCRQCKGDPKTKCARNAPYSGYSGAFHCLKDGKGDVAFVKHTTVNENAPDQKDEYELLCLDGSRQPVDNYKTCNWARVAAHAVVARDDNKVEDIWSFLSKAQSDFGVDTKSDFHLFGPPGKKDPVLKDLLFKDSAIMLKRVPSLMDSQLYLGFEYYSAIQSMRKDQLTPSPRENRIQWCAVGKDEKSKCDRWSVVSNGDVECTVVDETKDCIIKIMKGEADAVALDGGLVYTAGVCGLVPVMAERYDDESQCSKTDERPASYFAVAVARKDSNVNWNNLKGKKSCHTAVGRTAGWVIPMGLIHNRTGTCNFDEYFSEGCAPGSPPNSRLCQLCQGSGGIPPEKCVASSHEKYFGYTGALRCLVEKGDVAFIQHSTVEENTGGKNKADWAKNLQMDDFELLCTDGRRANVMDYRECNLAEVPTHAVVVRPEKANKIRDLLERQEKRFGVNGSEKSKFMMFESQNKDLLFKDLTKCLFKVREGTTYKEFLGDKFYTVISSLKTCNPSDILQMCSFLEGK
notes: a lactoferrin-like chicken egg host defense protein; iron chelating protein, tested Fe-unsaturated and Fe-saturated

What was measured:
Assay type in all cases: cell-based
[1] = tested on: P. aeruginosa strain PAO1; experiment: Growth of free swimming P. aeruginosa in biofilm medium containing lactoferrin (plate counting)
Experimental: (§1) P. aeruginosa strain PAO1 containing the GFP plasmid pMRP9-1 was used for most studies. Where indicated, an isogenic surface motility mutant (a PA01 deletion mutant from J. Kato (Department of Fermentation Technology, Hiroshima University, Hiroshima, Japan.) containing pMRP9-1 was used. Biofilm medium consisted of 1% Trypticase Soy Broth (Difco, Detroit, Mich.). In the growth experiments, approximately 10^3 bacteria from an overnight culture were added to 5 ml of biofilm medium containing the indicated concentrations of lactoferrin (Sigma Chemical Co., St Louis, Mo.). Cultures were incubated in acid-washed tubes at 37° C. with shaking. Colony-forming units were determined by plate counting. […] P. aeruginosa with pMRP9-1 was also grown in lactoferrin-containing effluent medium from flow cells. After one day of bacterial growth, effluent was collected on ice, filter sterilized, and growth was assessed as above.

[2] = tested on: wild-type P. aeruginosa PAO1; experiment: Biofilm formation in continuous culture flow cells (confocal microscopy); conditions: for effect on biofilm development / formation / effect on biofilm formation, iron-saturated protein: 20 μg/ml, flow cells; for effect on biofilm development / formation: Fe-unsaturated protein, up to day 7; for effect on biofilm formation, iron-saturated protein: Fe-saturated protein
Experimental: (§2) For studies of biofilm formation, wild-type P. aeruginosa PAO1 and the surface motility mutant were grown in flow cells similar to those described previously; the size of the flow channel was 5×35×1 mm. An overnight culture diluted to 10^7 cells per ml in fresh biofilm medium was used as the inoculum and flow was arrested for 45 min. Flow of biofilm medium with and without 20 μg/ml of Fe-unsaturated or Fe-saturated lactoferrin or conalbumin (Sigma Chemical Co.) was then initiated at a rate of 170 μl/min. Images were obtained using a Biorad (Hercules, Calif.) scanning confocal microscope.

P. aeruginosa [3] = experiment: Dividing times of attached bacteria in flow cells (time-lapse microscopy)
Experimental: as §2
(§3) Bacterial movement was assessed by using time-lapse images acquired at 1 min intervals. Motion of bacterial cells was traced visually by following individual cells. VOXblast software (VayTek, Inc, Fairfield, Iowa) was used to obtain the X-Y coordinates of bacterial cells.
(§4) Bacterial behaviors were classified as follows. Squatters remained within a 15 μm circle drawn around the point of parental cell division until the time of its cell division. Ramblers remained attached to the growth surface, but moved outside the circle. Flyers detached and were carried away by media flow. Dividing times of attached bacteria were measured by counting the number of frames between cell divisions; 60 bacterial divisions were observed and the dividing times were averaged.

P. aeruginosa [4] = experiment: Bacterial movement and behaviors (squatters, ramblers, flyers) in flow cells; conditions: in the presence of lactoferrin; 40 parental cells, three generations; FIG. 3c,d
Experimental: as §3, §4

[5] = tested on: P. aeruginosa surface motility mutant (PA01 deletion mutant); experiment: Biofilm formation of surface motility mutant in flow cells; conditions: in the presence of lactoferrin, FIG. 4e,f
Experimental: as §1

P. aeruginosa biofilms = experiment: Antimicrobial susceptibility of biofilms grown in rotating disk reactor (viable cell counts); conditions: Fe-unsaturated conalbumin during 48 h biofilm growth
Experimental: P. aeruginosa biofilms for susceptibility tests were grown in a rotating disk reactor. Fe-unsaturated conalbumin (Sigma Chemical Co.) was added to standard biofilm medium at indicated concentrations for the duration of biofilm growth. Discs and attached bacteria were then washed 3 times in distilled water, and treated for 4 h in 1 ml of H2O2 (Fisher Scientific) or tobramycin (Eli Lilly, Indianapolis, Ind.) at indicated concentrations. The treated discs were washed 3 times, and bacteria were removed and dispersed in 2 ml sterile PBS by homogenization (Brinkman Homogenizer, model 10/35). Viable cell numbers were enumerated by plate counting.

| Molecule | effect on growth rate of free swimming P. aeruginosa PAO1 ([1]; 20 μg/ml lactoferrin (sub-inhibitory), FIG. 1) | concentration of lactoferrin that inhibited bacterial growth ([1]; biofilm medium, 37° C. with shaking, varied for different lots) [µg/mL] | number of doublings in lactoferrin-containing effluent (conditioned) medium from flow cells ([1]; in 22 h, spent lactoferrin-treated medium) [times] | effect on biofilm development / formation [2] | effect on biofilm development / formation ([2]; listed as Lactoferrin) | effect on structure of mature biofilms ([2]; 5 day-old biofilms exposed to lactoferrin-containing medium for 48 h) | increase of dividing time of attached cells (P. aeruginosa [3]; 20 μg/ml lactoferrin vs. without) [%] | effect on growth of attached cells (P. aeruginosa [3]; concentration of lactoferrin that prevents biofilm formation) | dividing time of attached cells (P. aeruginosa [3]; with 20 μg/ml lactoferrin, average of 60 divisions) [min] | proportion of bacteria as squatters, ramblers, flyers (P. aeruginosa [4]) | biofilm formation by surface motility mutant [5] | effect on biofilm formation, iron-saturated protein [2] | effect of growth in conalbumin on biofilm resistance to H2O2 (P. aeruginosa biofilms; then H2O2 4 h) | effect of growth in conalbumin on biofilm resistance to tobramycin (P. aeruginosa biofilms; then tobramycin 4 h) |
| --- | --- | --- | --- | --- | --- | --- | --- | --- | --- | --- | --- | --- | --- | --- |
| B1 | did not affect the growth rate | ≥ 30 | 6 | differentiated biofilm formation was completely blocked | disrupted this pattern of development | failed to alter their structure | 27 | only slightly reduced the growth of attached cells | 127 | a significantly larger proportion of cells exhibited rambling behavior and fewer were squatters | formed microcolonies and irregularly shaped biofilms in both the absence and presence of lactoferrin | – | – | – |
| B2 | – | – | – | – | – | – | – | – | – | – | – | did not prevent P. aeruginosa biofilm formation | – | – |
| B3 | – | – | – | prevented biofilm formation in the iron-unsaturated state | – | – | – | – | – | – | – | not when iron-saturated | decreased resistance to both agents in a dose-dependent manner | decreased resistance to both agents in a dose-dependent manner |
